# Positions count from the first letter of the chain named.
# B1: 1-17-2 rat anti-human DEC-205 monoclonal antibody (antibody, V domains shown)
# VH: EVQLVESGGGLVQPGRSLKLSCAASGFTFSHYYMAWVRQAPTKGLEWVAYISTDGGTTYYRDSVKGRFTISRDNARSTLYLQVDSLRSEDTATYYCTTGQPGYNLDYFDYWGQGVMVTVSS
# VL: DIQMTQSPASLSASLEEIVTITCQASQDIGYWLAWYQLKPGKSPQLLIYGATSLADGVSSRFSGSRSGTQYSLKISRLQVEDIGIYYCQQASSVPWTFGGGTKLELK
# notes: VH of rat antibody 1-17-2; rat IgG1 heavy chain constant region (isotype IgG1 stated); VL of rat antibody 1-17-2; rat kappa light chain constant region (isotype kappa stated); Rat IgG1, kappa; also called Rat Ab; rat mAb; source: expressed in vitro and purified; hybridoma 1-17-2 from rats immunized with DEC-1-YB2/0 cells
# B2: chimeric 1-17-2 antibody (variable regions of 1-17-2 with constant regions of a human antibody) (antibody, V domains shown)
# VH: B1 VH
# VL: B1 VL
# notes: as the VH of m1; human heavy chain constant region contained in the MH vector; as the VL of m1; human light chain constant region contained in the MK vector; Captured by anti-human IgG (Fc) in SPR, so a human IgG; Vectors MH and MK from Dr. Linqi Zhang; also called Chi Ab; chimeric antibody
# B3: humanized 1-17-2 antibody (30 mutations based on the chimeric antibody) (antibody, V domains shown)
# VH: B1 VH with K19R, T42G, A75S, R76K, S77N, V83M, D84N, T93V, V115T, M116L
# VL: DIQMTQSPSSLSASVGDRVTITCQASQDIGYWLAWYQQKPGKAPKLLIYGATSLADGVPSRFSGSGSGTDFTLTISSLQPEDFATYYCQQASSVPWTFGGGTKLEIK
# notes: human heavy chain constant region contained in the MH vector; human light chain constant region contained in the MK vector; Humanized VL and VH fragments were synthesized; also called Hu Ab; humanized antibody
# Columns and labels:
# [1] = biological target: refined 1-17-2 antibody (humanized antibody with back mutation of the 5 key residues L38, L43, L45, L71 and H77) (rat | human); test: SPR; BIACORE T200, CM5 chip; antibody captured on immobilized anti-human IgG (Fc) (human antibody capture kit); DEC-S solution passed through, 6 concentrations; regeneration 3 M magnesium chloride; KD = kd/ka
# [2] = biological target: T1, DEC-205 protein (DEC-S) (Homo sapiens, UniProt O60449); test: SPR; BIACORE T200, CM5 chip; murine (rat) antibody immobilized by amine coupling; DEC-205 protein 500 to 15.625 nM, 240 sec injection at 30 µl/min, 600 sec dissociation; regeneration Glycine-HCl pH 2.5; KD = kd/ka; details: both partners purified
# T1 construct: DEC-205 protein in solution (DEC-S) used as SPR analyte; DEC-S is probably a soluble form of DEC-205
# [3] = biological target: T1, DEC-205 protein (DEC-S); test: SPR; BIACORE T200, CM5 chip; antibody captured on immobilized anti-human IgG (Fc) (human antibody capture kit); DEC-S solution passed through, 6 concentrations; regeneration 3 M magnesium chloride; KD = kd/ka; details: both partners purified
# T1 sequence (O60449 28-1722): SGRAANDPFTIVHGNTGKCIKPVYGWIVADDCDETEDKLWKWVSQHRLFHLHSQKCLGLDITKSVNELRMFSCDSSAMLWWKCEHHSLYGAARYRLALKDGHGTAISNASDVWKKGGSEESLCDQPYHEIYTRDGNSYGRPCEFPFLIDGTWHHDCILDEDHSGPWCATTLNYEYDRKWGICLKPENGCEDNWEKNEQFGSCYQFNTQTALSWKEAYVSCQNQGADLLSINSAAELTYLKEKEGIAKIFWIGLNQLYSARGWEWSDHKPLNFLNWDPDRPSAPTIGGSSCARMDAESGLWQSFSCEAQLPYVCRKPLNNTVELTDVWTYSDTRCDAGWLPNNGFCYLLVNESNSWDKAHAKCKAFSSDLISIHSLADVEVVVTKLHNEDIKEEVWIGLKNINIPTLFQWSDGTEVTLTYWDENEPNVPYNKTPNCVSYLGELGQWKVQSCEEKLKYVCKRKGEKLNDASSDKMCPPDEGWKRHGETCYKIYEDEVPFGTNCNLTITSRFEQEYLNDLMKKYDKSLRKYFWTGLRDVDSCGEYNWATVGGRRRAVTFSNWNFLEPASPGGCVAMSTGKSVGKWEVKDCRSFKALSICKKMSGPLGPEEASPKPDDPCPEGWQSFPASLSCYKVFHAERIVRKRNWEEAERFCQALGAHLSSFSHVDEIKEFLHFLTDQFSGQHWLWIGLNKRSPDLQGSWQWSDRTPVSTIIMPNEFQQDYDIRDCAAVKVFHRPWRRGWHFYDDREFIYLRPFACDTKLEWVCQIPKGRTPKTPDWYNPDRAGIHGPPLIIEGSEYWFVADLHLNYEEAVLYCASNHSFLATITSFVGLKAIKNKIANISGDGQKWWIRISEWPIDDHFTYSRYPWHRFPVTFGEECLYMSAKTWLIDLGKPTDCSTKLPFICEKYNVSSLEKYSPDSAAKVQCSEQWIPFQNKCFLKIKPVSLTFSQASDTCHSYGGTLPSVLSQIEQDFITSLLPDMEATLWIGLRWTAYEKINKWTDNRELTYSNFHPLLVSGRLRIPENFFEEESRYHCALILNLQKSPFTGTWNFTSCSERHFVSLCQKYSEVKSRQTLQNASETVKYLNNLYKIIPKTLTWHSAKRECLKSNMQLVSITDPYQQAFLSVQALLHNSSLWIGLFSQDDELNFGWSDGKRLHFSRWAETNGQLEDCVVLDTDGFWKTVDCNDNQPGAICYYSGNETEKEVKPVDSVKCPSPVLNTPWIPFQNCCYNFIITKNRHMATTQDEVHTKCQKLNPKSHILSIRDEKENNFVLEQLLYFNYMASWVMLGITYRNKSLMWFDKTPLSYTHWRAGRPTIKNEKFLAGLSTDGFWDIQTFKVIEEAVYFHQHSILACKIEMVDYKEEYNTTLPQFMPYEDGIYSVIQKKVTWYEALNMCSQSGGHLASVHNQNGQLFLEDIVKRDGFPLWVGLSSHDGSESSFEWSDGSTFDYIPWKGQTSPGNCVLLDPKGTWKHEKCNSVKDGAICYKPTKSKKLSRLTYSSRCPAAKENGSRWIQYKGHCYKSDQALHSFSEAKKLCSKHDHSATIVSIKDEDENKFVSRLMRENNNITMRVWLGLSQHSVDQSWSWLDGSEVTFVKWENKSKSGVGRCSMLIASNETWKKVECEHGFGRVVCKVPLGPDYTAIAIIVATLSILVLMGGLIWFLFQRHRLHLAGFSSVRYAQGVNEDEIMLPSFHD
Molecule,Kd [3] [nM],koff [3] [s⁻¹],kon [3] [M⁻¹ s⁻¹],other results
DEC-205 protein (DEC-S) (from UniProt O60449 28-1722) (receptor),–,–,–,Kd [1]: 16.7 nM; koff [1]: 0.000137 s⁻¹; kon [1]: 8220 M⁻¹ s⁻¹
B1,–,–,–,Kd [2]: 29.7 nM; koff [2]: 0.000185 s⁻¹; kon [2]: 6290 M⁻¹ s⁻¹
B2,35.4,0.000273,8040,–
B3,373,0.00105,2930,–
